Article PMC2812052
Where “and” joins values, the source holds several entries; their conditions need not be identical. Identical values can stand only once. Each block holds one substance with its values, some of them ahead of it.

Experiments:
[1] = target: recombinant bAα374-568 fragment corresponding to the full-length bovine fibrinogen αC-domain (bovine); experiment: AUC
[2] = target: recombinant bAα374-568 fragment corresponding to the full-length bovine fibrinogen αC-domain (bovine); experiment: SEC
[3] = target: recombinant human hAα425-503 fragment, truncated variant of the human fibrinogen αC-domain (human); experiment: AUC
[4] = target: recombinant human hAα425-503 fragment, truncated variant of the human fibrinogen αC-domain (human); experiment: SEC
[5] = target: recombinant hAα392-610 fragment corresponding to the full-length human fibrinogen αC-domain (human); experiment: AUC
[6] = target: recombinant hAα392-610 fragment corresponding to the full-length human fibrinogen αC-domain (human); experiment: SEC

Ka [1]: 26100 M⁻¹ | Kd [1]: 38.3 µM | oligomers (%) at 1.8 mg/mL, 0.15 M NaCl [2]: 9.5% | oligomers (%) at 3.7 mg/mL, 0.15 M NaCl [2]: 27.2% | oligomers (%) at 3.8 mg/mL, 2.0 M NaCl [2]: 54.4%
Substance: recombinant bAα374-568 fragment corresponding to the full-length bovine fibrinogen αC-domain (domain or fragment)

Kd [3]: 1140 µM | oligomers (%) at 1.6 mg/mL, 2.0 M NaCl [4]: 43.6% | oligomers (%) at 3.2 mg/mL, 0.15 M NaCl [4]: 1.7% | oligomers (%) at 3.2 mg/mL, 1.0 M NaCl [4]: 26.2% | oligomers (%) at 6.3 mg/mL, 0.15 M NaCl [4]: 6.6% | stoichiometry N [4]: 5 and 6
Substance: recombinant human hAα425-503 fragment, truncated variant of the human fibrinogen αC-domain (domain or fragment)

Ka [5]: 83200 M⁻¹ | Kd [5]: 12 µM | stoichiometry N [5]: 11.3 | oligomers (%) at 1.9 mg/mL, 0.15 M NaCl [6]: 15.4% | oligomers (%) at 3.8 mg/mL, 0.15 M NaCl [6]: 32% | oligomers (%) at 4.0 mg/mL, 2.0 M NaCl [6]: 58.5%
Substance: recombinant hAα392-610 fragment corresponding to the full-length human fibrinogen αC-domain (domain or fragment)
